Assay results taken from patent US20250333445A1, “NOVEL POLYPEPTIDES” (Oncopeptides Innovation 1 AB, priority 2022, published 2025).

Molecular target: Human BCMA-rFc (BCMA Protein aa 1-54, Human, Recombinant (ECD, rabbit Fc Tag), cat. no. 10620-H15H, Sino Biological) (human) (UniProt Q02223)
Assay: SPR, 200 nM hCD16a over immobilised hBCMA-rFc without engager (background control)

response signal [RU] | Substance
< 10 | hCD16a V158 (Cat. no. CD8-H52H4, Acro Biosystems) (from UniProt P08637 17-208) (receptor)
< 10 | hCD16a F158 (Cat. no. CDA-H5220, Acro Biosystems) (from UniProt P08637 17-208) (receptor)
